The results in this text go back to patent US20230086069A1 (SYSTIMMUNE, published 2023).

Where a chain is given by its changes, count along the chain named.

Assay [1] concerns the target T1, His-tagged human CD19 (human, UniProt P15391 20-291, limits assumed).
T1 construct: not shown: His tag
T1 sequence (looked up): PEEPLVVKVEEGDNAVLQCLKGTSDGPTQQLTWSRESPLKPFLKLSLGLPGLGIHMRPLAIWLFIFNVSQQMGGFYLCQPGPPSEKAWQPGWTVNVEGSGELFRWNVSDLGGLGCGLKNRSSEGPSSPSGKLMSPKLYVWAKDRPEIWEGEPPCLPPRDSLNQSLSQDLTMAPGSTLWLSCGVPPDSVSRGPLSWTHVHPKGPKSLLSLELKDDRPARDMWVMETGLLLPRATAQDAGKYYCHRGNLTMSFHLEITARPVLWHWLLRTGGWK
Put plainly: BLI (Octet), scFv-His coupled covalently to AR2G sensor, His-tagged human CD19 as analyte. Here is the method: To assess the binding affinity of SI-63R1, Octet binding assay was used. The SI-63R1 protein was loaded via covalent coupling onto AR2G sensors at 10 ug/ml and bound to a serial dilution of His-tagged human CD19 (1:2.5 dilutions from the highest concentration of 200 nM).
Background: In BLI a coated tip is dipped into the sample, and binding shifts an interference pattern.

The target of assay [2] is T2, human CD19 protein (R&D Biosystems Cat #9269-CD-050) (human, UniProt P15391 20-291).
T2 sequence (looked up): T1 sequence (looked up)
Put plainly: BLI (Octet); human CD19. How it is done: (§1) The purified SI-63C1, SI-63C2, and SI-34C1 antibodies were tested for their binding affinity using biolayer interferometry (ForteBio OctetRED 384). The antibodies were bound to anti-human Fc biosensors, and human CD19 protein (R&D Biosystems Cat #9269-CD-050) was used as the analyte in a 4-point series of 2-fold dilutions with the highest concentration starting at 200 nM.

Assay [3] addresses T2, human CD19 protein (R&D Biosystems Cat …). Put plainly: BLI (Octet), antibody on anti-human Fc biosensor, human CD19 as analyte. Here is the method:
as §1

The target of assay [4] is T1, His-tagged human CD19. Put plainly: BLI (Octet), scFv-monoFc on AHC sensor, His-tagged human CD19 as analyte, global 1:1 fit. An excerpt: To further screen and compare all humanized peptides, the DNA sequences encoding humanized CD19 binding variants (H1, H2, H3, H4, H5 and H6) were configured to a scFv-monoFc format and cloned (Dimitrov et al. 2012.) (SEQ ID NO. 55,57,59,61,63,65). […] They were given names as SI-63SF1(H1), SI-63SF2(H2), SI-63SF4(H3), SI-63SF5(H4), SI-63SF6(H5), and SI-63SF7(H6). Following the expression and purification processes, all six proteins were characterized for their physical characters, including yields (titer), purity (% HMW and aSEC), binding affinity (KD, Kon, and Kdis) to human CD19, and thermal stability. For Octet assay, the scFv-monoFc fusion proteins were loaded via AHC sensors at 10 ug/ml and bound to a serial dilution of His-tagged human CD19 (1:2.5 dilutions starting from the highest concentration of 200 nM), and the resulting global fit to a 1:1 binding model. For the DLS analysis, the temperature was ramped from 25° C. to 75° C. at 0.5° C./min while the radius of the scFv-monoFc fusion proteins (at 1 mg/ml) was monitored by a Wyatt DynaPro Plate Reader III.

The target in assay [5] is T3, human CD19 on cells (CD20+ B cells of human PBMC; Raji lymphoma cells) (human, UniProt P15391 20-556).
T3 construct: whole, on cells; also called Human CD20+
T3 sequence (looked up): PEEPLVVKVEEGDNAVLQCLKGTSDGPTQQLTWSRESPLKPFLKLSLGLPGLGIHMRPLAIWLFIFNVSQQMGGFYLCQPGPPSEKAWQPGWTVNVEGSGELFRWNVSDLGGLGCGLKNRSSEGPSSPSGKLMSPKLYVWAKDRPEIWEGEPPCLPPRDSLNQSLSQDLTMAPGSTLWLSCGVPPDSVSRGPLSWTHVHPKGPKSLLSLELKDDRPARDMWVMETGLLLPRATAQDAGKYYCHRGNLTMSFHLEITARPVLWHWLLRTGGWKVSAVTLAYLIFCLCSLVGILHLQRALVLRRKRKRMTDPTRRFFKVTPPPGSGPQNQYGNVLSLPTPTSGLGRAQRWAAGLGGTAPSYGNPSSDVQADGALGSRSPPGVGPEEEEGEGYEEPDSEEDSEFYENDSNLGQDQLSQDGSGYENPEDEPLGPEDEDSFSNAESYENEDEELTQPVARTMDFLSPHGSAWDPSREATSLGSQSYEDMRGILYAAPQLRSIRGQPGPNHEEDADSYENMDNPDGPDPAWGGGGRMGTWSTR
Put plainly: flow cytometry, dose response on human CD20+ lymphocytes. Here is the method: (§2) To determine if the humanization alters the cross reactivity, the flow cytometry was carried out. The SI-63C2 antibody was used to bind the peripheral blood mononuclear cells derived from human, cynomolgus, and rhesus, respectively. Lymphocytes were gated based on forward and side scatter, followed by single cells based on the ratio of forward scatter signal height and area. Viable CD20+ B-cell and CD20− lymphocytes are gated based on the exclusion of membrane permeable amine reactive dye and the binding level of CD20 antibody (clone 2H7, Biolegend). Binding of the labelled antibody was determined as the geometric mean fluorescence intensity (gMFI) of the cell population for the fluorescent conjugate's emission channel. As shown in the histogram analysis in FIG. 4, the SI-63C2 antibody binds to CD20+ B cells from human, cynomolgus, and rhesus (4A) but not to their CD20− lymphocytes (4B).
In general terms: In flow cytometry, cells or beads pass a laser one at a time.

For assay [6], the target named is T4, rhesus CD19 on cells (CD20+ B cells of rhesus PBMC) (rhesus, UniProt F7F486 20-557).
T4 construct: also called Rhesus CD20+
T4 sequence: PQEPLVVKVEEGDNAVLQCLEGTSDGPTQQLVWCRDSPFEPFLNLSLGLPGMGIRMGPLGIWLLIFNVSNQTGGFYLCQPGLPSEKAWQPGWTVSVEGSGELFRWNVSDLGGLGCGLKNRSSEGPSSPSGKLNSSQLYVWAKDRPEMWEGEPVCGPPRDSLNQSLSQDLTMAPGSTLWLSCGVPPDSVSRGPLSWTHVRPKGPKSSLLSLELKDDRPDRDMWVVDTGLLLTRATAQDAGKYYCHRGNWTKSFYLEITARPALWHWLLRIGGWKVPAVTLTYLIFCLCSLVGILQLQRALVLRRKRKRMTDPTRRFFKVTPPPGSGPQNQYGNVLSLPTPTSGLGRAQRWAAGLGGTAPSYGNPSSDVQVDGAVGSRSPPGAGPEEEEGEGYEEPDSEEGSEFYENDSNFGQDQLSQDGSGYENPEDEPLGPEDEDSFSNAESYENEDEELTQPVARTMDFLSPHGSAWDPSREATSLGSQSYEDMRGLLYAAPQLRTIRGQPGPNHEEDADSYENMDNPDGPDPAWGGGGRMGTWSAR
Put plainly: flow cytometry, dose response on rhesus CD20+ lymphocytes. How it is done: as §2

Assay [7] deals with T5, cynomolgus CD19 on cells (CD20+ B cells of cynomolgus PBMC) (cynomolgus).
T5 construct: whole, on cells; also called Cynomolgus CD20+
Put plainly: flow cytometry, dose response on cynomolgus CD20+ lymphocytes. How it is done: as §2

B1: SI-63R1 (humanized anti-CD19 H1 scFv-His-tagged protein) (scFv)
scFv: ENVLTQSPASLSASPGERVTITCSASSSVSYMHWYQQKPGQAPKLWIYDTSKLASGVPSRFSGSGSGNDHTLTISSMEPEDFATYYCFQGSVYPFTFGQGTKLEIKGGGGSGGGGSGGGGSGGGGSQVTLKESGPGLVQPGQTLRLTCAFSGFSLSTSGMGVGWIRQPPGKGLEWLAHIWWDDDKRYNPALKSRLTISKDTSKNQVYLQMNSLDAEDTAVYYCARMELWSYYFDYWGQGTLVTVSSGSHHHHHH
notes: also called SI-63R1(H1)
For orientation: Kd means the equilibrium constant for the complex coming apart. As usually defined, the koff is a measure of how fast the partners let go of each other. Lower therefore signals a long-lived complex. In the assay with His-tagged human CD19 [1], B1 showed a Kd of 1.83 nM and a koff of 9.15e-05 s⁻¹.

B2: SI-34C1 (recombinant mAb with 21D4 human anti-CD19 variable sequence) (antibody, human IgG1, kappa, V domains shown)
VH: EVQLVQSGAEVKKPGESLKISCKGSGYSFSSSWIGWVRQAPGKGLEWMGIIYPDDSDTRYSPSFQGQVTISADKSIRTAYLQWSSLKASDTAMYYCARHVTMIWGVIIDFWGQGTLVTVSS
VL: AIQLTQSPSSLSASVGDRVTITCRASQGISSALAWYQQKPGKAPKLLIYDASSLESGVPSRFSGSGSGTDFTLTISSLQPEDFATYYCQQFNSYPFTFGPGTKVDIKR
notes: also called human anti-CD19 antibody (21D4)
The kon is the second-order rate constant of association. Lower therefore signals slow association. Regarding B2, the Kd in assay [2] came out at 2.1 nM. In assay [3], this molecule returned a Kd of 1.56 nM, a koff of 0.000101 s⁻¹ and a kon of 64400 M⁻¹ s⁻¹.

B3: SI-63SF4 (H3 scFv-monoFc fusion protein) (Fc fusion)
chain: ENVLTQSPASLSASPGERVTITCSASSSVSYMHWYQQKPGQAPKLWIYDTSKLASGVPSRFSGSGSGNDHTLTISSMEPEDFATYYCFQGSVYPFTFGQGTKLTVLGGGGSGGGGSGGGGSGGGGSQVTLKESGPGLVQPGQTLRLTCAFSGFSLSTSGMGVGWIRQPPGKGLEWLAHIWWDDDKRYNPALKSRLTISKDTSKNQVYLQMNSLDAEDTAVYYCARMELWSYYFDYWGQGTLVTVSSGGSSGSGSGSTGLVPRGSTSSSGTGTSAGTPVAGPSVFLFPPKPKDTLMISRTPEVTCVVVDVSHEDPEVKFNWYVDGVEVHNAKTKPREEQYASTYRVVSVLTVLHQDWLNGKEYKCKVSNKALPAPIEKTISKAKGQPREPQVYTLPPSRDELTKNQVSLRCHVKGFYPSDIAVEWESNGQPENNYKTTKPVLDSDGSFFLYSTLTVDKSRWQQGNVFSCSVLHEALHNHYTQKSLSLSPGKGSGLNDIFEAQKIEWHE
notes: The entry is the whole scFv-monoFc chain; also called Humanized version 3 ScFv monoFc
In the assay with His-tagged human CD19 [4], B3 had a Kd of 4.18 nM and a koff of 0.00191 s⁻¹.

B4: SI-63SF2 (H2 scFv-monoFc fusion protein) (Fc fusion)
chain: B3 chain with L103I, V105I
notes: The entry is the whole scFv-monoFc chain; also called Humanized version 2 ScFv monoFc
Take B4: in the assay with His-tagged human CD19 [4], the affinity, expressed as Kd, was 4.22 nM and the koff worked out at 0.00181 s⁻¹.

B5: SI-63SF1 (H1 scFv-monoFc fusion protein) (Fc fusion)
chain: B3 chain with T104E, V105I, L106K
notes: The entry is the whole scFv-monoFc chain; also called Humanized version 1 ScFv monoFc
In the assay with His-tagged human CD19 [4], B5 yielded a Kd of 6.89 nM and a koff of 0.000184 s⁻¹.

B6: SI-63SF5 (H4 scFv-monoFc fusion protein) (Fc fusion)
chain: B3 chain with L103V
notes: The entry is the whole scFv-monoFc chain; also called Humanized version 4 ScFv monoFc
In the assay with His-tagged human CD19 [4], B6 yielded a Kd of 5.02 nM and a koff of 0.00187 s⁻¹.

B7: SI-63SF6 (H5 scFv-monoFc fusion protein) (Fc fusion)
chain: EIVMTQSPSTLSASVGDRVIITCSASSSVSYMHWYQQKPGKAPKLLIYDTSKLASGVPSRFSGSGSGAEFTLTISSLQPDDFATYYCFQGSVYPFTFGQGTKLTVLGGGGSGGGGSGGGGSGGGGSEVQLVESGGGLVQPGGSLRLSCVFSGFSLSTSGMGVGWVRQAPGKGLEWVGHIWWDDDKRYNPALKSRFTISRDTSKNTVYLQMNSLRAEDTAVYYCARMELWSYYFDYWGQGTLVTVSSGSSGSGSGSTGLVPRGSTSSSGTGTSAGTPVAGPSVFLFPPKPKDTLMISRTPEVTCVVVDVSHEDPEVKFNWYVDGVEVHNAKTKPREEQYASTYRVVSVLTVLHQDWLNGKEYKCKVSNKALPAPIEKTISKAKGQPREPQVYTLPPSRDELTKNQVSLRCHVKGFYPSDIAVEWESNGQPENNYKTTKPVLDSDGSFFLYSTLTVDKSRWQQGNVFSCSVLHEALHNHYTQKSLSLSPGKGSGLNDIFEAQKIEWHE
notes: The entry is the whole scFv-monoFc chain; also called Humanized version 5 ScFv monoFc
In the assay with His-tagged human CD19 [4], B7 gave a Kd of 5.68 nM, an off-rate constant (koff) of 0.000339 s⁻¹ and a kon of 59700 M⁻¹ s⁻¹.

B8: SI-63SF7 (H6 scFv-monoFc fusion protein) (Fc fusion)
chain: B7 chain with V149S
notes: The entry is the whole scFv-monoFc chain; also called Humanized version 6 ScFv mono Fc
As for B8, in the assay with His-tagged human CD19 [4], the Kd is 5.37 nM, the koff worked out at 0.000377 s⁻¹ and the kon amounted to 70200 M⁻¹ s⁻¹.

B9: SI-63C1 (recombinant chimeric mAb with BU12 mouse parental anti-CD19 variable sequence) (antibody, V domains shown)
VH: QVTLKESGPGILQPSQTLSLTCSFSGFSLSTSGMGVGWIRQPSGKGLEWLAHIWWDDDKRYNPALKSRLTISKDTSSNQVFLKIASVDTADTAAYYCARMELWSYYFDYWGQGTTLTVSS
VL: ENVLTQSPAIMSASPGEKVTMTCSASSSVSYMHWYQQKSSTSPKLWIYDTSKLASGVPGRFSGSGSGNSHFLTISSMEAEDVATYYCFQGSVYPFTFGSGTKLEIKR
notes: Mouse BU12 variable regions on human kappa and human IgG CH1-Fc; also called BU12-chimeric; SI-63C1-AF647
In general, EC50 refers to the midpoint of the concentration-response curve. Low values mean a more potent agent, high ones a less potent agent. In assay [5], B9 gave an EC50 of 0.231 µg/mL. In assay [6], this molecule yielded an EC50 of 0.991 µg/mL. Further, a half-maximal effect in assay [7] (EC50) was put at 0.909 µg/mL. In assay [3], this molecule showed a Kd of 3.06 nM, a koff of 0.000209 s⁻¹ and an on-rate (kon) of 68100 M⁻¹ s⁻¹.
